These results are taken from PMC4835703.

Broadly, the Kd is a measure of binding affinity in units of concentration.

Assay [1] concerns the target MD2-GFP (UniProt Q9Y6Y9). Kind of assay: MST; secreted MD2-GFP in the culture supernatant of transfected 293 cells grown in suspension; CnB titrated in 16 1:1 dilutions.
In assay [2] the target is CD14-GFP (full-length membrane-anchored CD14 from transfected HEK293 lysates) (UniProt P08571). Kind of assay: MST; GFP-tagged receptors in lysates of transfected HEK293 cells (RIPA buffer), diluted according to fluorescence intensity; CnB titrated in 16 1:1 dilutions; 25 °C.
For assay [3], the target named is MD2-GFP (UniProt Q9Y6Y9). The assay is described as above.
Assay [4] deals with TLR4-GFP (full-length TLR4 from transfected HEK293 lysates) (UniProt O00206). Described as above.
Sequence of TLR4-GFP (full-length TLR4 from transfected HEK293 lysates) (O00206 24-839): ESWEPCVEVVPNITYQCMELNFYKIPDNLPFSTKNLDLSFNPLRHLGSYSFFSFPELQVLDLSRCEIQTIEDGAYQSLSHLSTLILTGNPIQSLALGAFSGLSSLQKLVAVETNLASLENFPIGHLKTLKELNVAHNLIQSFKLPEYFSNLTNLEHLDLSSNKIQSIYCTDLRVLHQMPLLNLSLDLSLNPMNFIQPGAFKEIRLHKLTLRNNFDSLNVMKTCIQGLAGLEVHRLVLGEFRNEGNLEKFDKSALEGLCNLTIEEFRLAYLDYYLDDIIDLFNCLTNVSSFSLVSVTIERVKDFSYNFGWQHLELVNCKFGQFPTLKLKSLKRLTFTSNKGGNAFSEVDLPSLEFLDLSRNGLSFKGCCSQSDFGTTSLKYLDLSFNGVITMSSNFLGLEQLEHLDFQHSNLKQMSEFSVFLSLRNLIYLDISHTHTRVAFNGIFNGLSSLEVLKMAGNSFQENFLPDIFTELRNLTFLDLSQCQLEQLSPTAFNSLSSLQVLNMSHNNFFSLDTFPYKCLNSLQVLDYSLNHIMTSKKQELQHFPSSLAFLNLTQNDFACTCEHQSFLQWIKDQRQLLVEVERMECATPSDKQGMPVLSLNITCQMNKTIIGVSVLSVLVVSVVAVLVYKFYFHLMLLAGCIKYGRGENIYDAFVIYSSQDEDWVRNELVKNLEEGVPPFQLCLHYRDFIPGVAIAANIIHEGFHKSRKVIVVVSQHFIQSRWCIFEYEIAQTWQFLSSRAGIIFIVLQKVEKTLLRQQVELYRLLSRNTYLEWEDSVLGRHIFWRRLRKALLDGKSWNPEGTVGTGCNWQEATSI

Sequence of recombinant calcineurin B (P63098 whole entry): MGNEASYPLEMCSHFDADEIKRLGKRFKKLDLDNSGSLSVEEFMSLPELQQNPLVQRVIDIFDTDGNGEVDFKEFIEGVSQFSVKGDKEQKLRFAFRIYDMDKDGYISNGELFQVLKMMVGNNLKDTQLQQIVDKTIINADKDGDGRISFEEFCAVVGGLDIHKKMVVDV
Sequence of MD2-GFP (Q9Y6Y9 19-160): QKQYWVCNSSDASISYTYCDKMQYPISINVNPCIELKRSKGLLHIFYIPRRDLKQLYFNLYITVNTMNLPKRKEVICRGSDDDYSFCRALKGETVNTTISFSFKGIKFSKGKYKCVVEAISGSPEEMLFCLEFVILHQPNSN
Sequence of CD14-GFP (full-length membrane-anchored CD14 from transfected HEK293 lysates) (P08571 20-367): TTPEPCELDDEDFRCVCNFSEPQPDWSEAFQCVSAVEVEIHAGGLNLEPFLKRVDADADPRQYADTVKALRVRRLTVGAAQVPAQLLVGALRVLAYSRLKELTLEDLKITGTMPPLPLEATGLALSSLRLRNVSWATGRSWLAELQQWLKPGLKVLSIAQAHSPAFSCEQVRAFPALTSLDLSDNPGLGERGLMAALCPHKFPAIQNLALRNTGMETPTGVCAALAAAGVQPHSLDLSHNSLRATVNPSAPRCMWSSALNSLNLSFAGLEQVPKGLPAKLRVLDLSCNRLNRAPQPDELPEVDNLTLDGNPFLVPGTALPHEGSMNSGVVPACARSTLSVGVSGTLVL

On to “recombinant calcineurin B (from UniProt P63098 1-170) (natural protein; other documents disagree on this pair)”, for which the Kd with MD2-GFP [1] stood at 74 µM; in assay [2] it was 34.8 µM; with MD2-GFP [3], 7.43 µM; in assay [4], 6.5 µM.
